Measurements as given in patent US20230220589A1.
Substitutions are numbered along the chain they refer to.

Key:
[1] = target: M44-modified G NTAA target peptides (M44-G-P2-peptide); test: encoding assay; P2 H;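 also: fraction of recording tags encoded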
[2] = target: M44-modified S NTAA target peptides; test: encoding assay; P2 H
[3] = target: M44-modified E NTAA target peptides; test: encoding assay; P2 H;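 also: fraction of recording tags encoded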
[4] = target: M44-modified G NTAA target peptides (M44-G-P2-peptide); test: encoding assay; P2 E;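 also: fraction of recording tags encoded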
[5] = target: M44-modified E NTAA target peptides; test: encoding assay; P2 W;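 also: fraction of recording tags encoded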
[6] = target: M17-modified F NTAA target peptides; test: encoding assay; P2 H;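 also: fraction of recording tags encoded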
[7] = target: M17-modified I NTAA target peptides; test: encoding assay; P2 H;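 also: fraction of recording tags encoded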
[8] = target: M17-modified V NTAA target peptides; test: encoding assay; P2 H;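 also: fraction of recording tags encoded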
[9] = target: M17-modified W NTAA target peptides; test: encoding assay; P2 H;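 also: fraction of recording tags encoded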
[10] = target: M17-modified G NTAA target peptides; test: encoding assay; P2 H;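 also: fraction of recording tags encoded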
[11] = target: M17-modified D NTAA target peptides; test: encoding assay; P2 H;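 also: fraction of recording tags encoded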
[12] = target: M17-modified A NTAA target peptides; test: encoding assay; P2 H;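 also: fraction of recording tags encoded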
[13] = target: M17-modified T NTAA target peptides; test: encoding assay; P2 H;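 also: fraction of recording tags encoded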
[14] = target: M17-modified P NTAA target peptides; test: encoding assay; P2 H;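 also: fraction of recording tags encoded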
[15] = target: M17-modified Q NTAA target peptides; test: encoding assay; P2 H;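 also: fraction of recording tags encoded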
[16] = target: M17-modified M NTAA target peptides; test: encoding assay; P2 H;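 also: fraction of recording tags encoded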
[17] = target: M17-modified H NTAA target peptides; test: encoding assay; P2 H;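 also: fraction of recording tags encoded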
[18] = target: M17-modified N NTAA target peptides; test: encoding assay; P2 H;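 also: fraction of recording tags encoded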
[19] = target: M17-modified L NTAA target peptides; test: encoding assay; P2 H;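 also: fraction of recording tags encoded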
[20] = target: M17-modified Y NTAA target peptides (M17-Y-P2-peptide); test: encoding assay; P2 H;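 also: fraction of recording tags encoded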
[21] = target: M17-modified E NTAA target peptides; test: encoding assay; P2 H;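 also: fraction of recording tags encoded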
[22] = target: M17-modified S NTAA target peptides; test: encoding assay; P2 H;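 also: fraction of recording tags encoded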
[23] = target: M17-modified F NTAA target peptides; test: encoding assay; P2 L;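 also: fraction of recording tags encoded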
[24] = target: M17-modified I NTAA target peptides; test: encoding assay; P2 L;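 also: fraction of recording tags encoded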
[25] = target: M17-modified M NTAA target peptides; test: encoding assay; P2 L;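 also: fraction of recording tags encoded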
[26] = target: M17-modified H NTAA target peptides; test: encoding assay; P2 L;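 also: fraction of recording tags encoded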
[27] = target: M17-modified N NTAA target peptides; test: encoding assay; P2 L;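 also: fraction of recording tags encoded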
[28] = target: M17-modified L NTAA target peptides; test: encoding assay; P2 L;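 also: fraction of recording tags encoded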
[29] = target: M17-modified Y NTAA target peptides (M17-Y-P2-peptide); test: encoding assay; P2 L;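 also: fraction of recording tags encoded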
[30] = target: M17-modified S NTAA target peptides; test: encoding assay; P2 L;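 also: fraction of recording tags encoded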
[31] = target: M17-modified V NTAA target peptides; test: encoding assay; P2 E;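 also: fraction of recording tags encoded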
[32] = target: M17-modified D NTAA target peptides; test: encoding assay; P2 E;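 also: fraction of recording tags encoded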
[33] = target: M17-modified P NTAA target peptides; test: encoding assay; P2 E;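 also: fraction of recording tags encoded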
[34] = target: M17-modified Q NTAA target peptides; test: encoding assay; P2 E;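 also: fraction of recording tags encoded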
[35] = target: M17-modified N NTAA target peptides; test: encoding assay; P2 E;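 also: fraction of recording tags encoded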
[36] = target: M17-modified Y NTAA target peptides (M17-Y-P2-peptide); test: encoding assay; P2 E;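 also: fraction of recording tags encoded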
[37] = target: M17-modified S NTAA target peptides; test: encoding assay; P2 E;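 also: fraction of recording tags encoded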
[38] = target: M17-modified F NTAA target peptides; test: encoding assay; P2 W;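 also: fraction of recording tags encoded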
[39] = target: M17-modified I NTAA target peptides; test: encoding assay; P2 W;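 also: fraction of recording tags encoded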
[40] = target: M17-modified V NTAA target peptides; test: encoding assay; P2 W;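 also: fraction of recording tags encoded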
[41] = target: M17-modified W NTAA target peptides; test: encoding assay; P2 W;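 also: fraction of recording tags encoded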
[42] = target: M17-modified G NTAA target peptides; test: encoding assay; P2 W;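 also: fraction of recording tags encoded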
[43] = target: M17-modified D NTAA target peptides; test: encoding assay; P2 W;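 also: fraction of recording tags encoded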
[44] = target: M17-modified A NTAA target peptides; test: encoding assay; P2 W;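 also: fraction of recording tags encoded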
[45] = target: M17-modified T NTAA target peptides; test: encoding assay; P2 W;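 also: fraction of recording tags encoded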
[46] = target: M17-modified P NTAA target peptides; test: encoding assay; P2 W;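 also: fraction of recording tags encoded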
[47] = target: M17-modified Q NTAA target peptides; test: encoding assay; P2 W;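 also: fraction of recording tags encoded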
[48] = target: M17-modified M NTAA target peptides; test: encoding assay; P2 W;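 also: fraction of recording tags encoded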
[49] = target: M17-modified H NTAA target peptides; test: encoding assay; P2 W;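 also: fraction of recording tags encoded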
[50] = target: M17-modified N NTAA target peptides; test: encoding assay; P2 W;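 also: fraction of recording tags encoded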
[51] = target: M17-modified L NTAA target peptides; test: encoding assay; P2 W;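 also: fraction of recording tags encoded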
[52] = target: M17-modified Y NTAA target peptides (M17-Y-P2-peptide); test: encoding assay; P2 W;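 also: fraction of recording tags encoded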
[53] = target: M17-modified E NTAA target peptides; test: encoding assay; P2 W;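 also: fraction of recording tags encoded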
[54] = target: M17-modified S NTAA target peptides; test: encoding assay; P2 W;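 also: fraction of recording tags encoded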

Measured: encoding yield

B1: engineered M44-L binder (SEQ ID NO: 31) (designed binder, not shown: small tags and cut ends; large carriers)
chain: QDSTQNLIPAPPLISVPLQPGFWTERFQGRWFLVGFAGNAVQKERQSRLTMQSLILELQEDNSYNITAINVRGQGCRYIISTLVPSSRPGQFTLGNIHSYPQIQSLDVQVADTDYDQFAMVFLQGTSENKQYFEVALAGRTKGLSDELKERFVSFAKSLGLKDNNIVFSVPTDQCIDN
0.02: [3]
0.01: [1] | [2] | [4] | [5]

B2: engineered M44-A binder (SEQ ID NO: 42) (designed binder, not shown: small tags and cut ends; large carriers)
chain: QVSVQPNFQQDKFLGRWFVAGLASNSSWDREKVAALSGAKMVVAPATDGGLNVTRTMLRKNQCETYTGLLQPAGSLGSYSWRSPHPGSTGSESVVETDYDQYALVYGQGSKGPGEDLRAAALWSRTQTPRAELKEKFTAFSKAQGFTEDTIVFLPQTDKCMTEQ
0.01: [1] | [2] | [4]
0.03: [3]
0.02: [5]

B3: engineered M17-Y binder (SEQ ID NO: 61) (designed binder, not shown: small tags and cut ends; large carriers)
chain: TVPDRSEIAGKWYVVALASNTEFYLREKDWVKSAMARISFLGEDELKVSSAVPSPNGCYKVERTWKKTSDDGEVYNSRAAKLKVEVLDTDYKSYAVIYATRVKDGRTDHQMILYSRSPEVSPAATAIFRKLAGERNYTDEMVAMLPRQEECTVDEV
0.04: [23] | [41]
0.11: [39]
0.12: [52]
0.07: [20] | [36]
0.05: [40]
0.03: [7] | [8] | [14] | [17] | [18] | [25] | [27] | [30] | [46] | [51]
0.14: [38]
0.06: [28]
0.01: [10] | [21] | [22] | [24] | [35] | [42] | [45] | [53]
0.17: [29]
not listed: [1] | [2] | [3] | [4] | [5]
0.02: all other assays above

B4: upgraded binder after additional maturation round (SEQ ID NO: 62) (designed binder, not shown: small tags and cut ends; large carriers)
chain: B3 chain with E27G, W30R, A36V, L41Q, G105R, E119D
0.12: [28]
0.14: [39]
0.08: [23]
0.04: [14] | [26] | [33] | [43] | [44] | [48] | [49] | [50]
0.06: [24] | [54]
0.16: [36]
0.19: [52]
0.01: [53]
0.07: [20] | [40]
0.1: [41]
0.18: [38]
0.29: [29]
0.02: [6] | [8] | [10] | [17] | [19] | [21] | [22] | [32] | [35] | [42]
not listed: [1] | [2] | [3] | [4] | [5]
0.03: all other assays above
